# According to US20100129369A1:
# What was measured:
# human c-Met (human) = human c-Met (human) (UniProt P08581); assay: cell-based or functional assay
# [1] = target: human c-Met ECD-Fc-Flis (human); assay: HGF-blocking ELISA: HGF signal on coated c-Met ECD-Fc-Flis; Ab 1.91 ng/mL
# [2] = target: human c-Met ECD-Fc-Flis (human); assay: HGF-blocking ELISA: HGF signal on coated c-Met ECD-Fc-Flis; Ab 0.00 ng/mL (HGF only)
# [3] = target: human c-Met ECD-Fc-Flis (human); assay: HGF-blocking ELISA: HGF signal on coated c-Met ECD-Fc-Flis; Ab 30.52 ng/mL
# [4] = target: human c-Met ECD-Fc-Flis (human); assay: HGF-blocking ELISA: HGF signal on coated c-Met ECD-Fc-Flis; Ab 488.28 ng/mL
# [5] = target: human c-Met ECD-Fc-Flis (human); assay: HGF-blocking ELISA: HGF signal on coated c-Met ECD-Fc-Flis; Ab 31250.00 ng/mL
# [6] = target: human c-Met ECD-Fc-Flis (human); assay: HGF-blocking ELISA: HGF signal on coated c-Met ECD-Fc-Flis; Ab 122.07 ng/mL
# [7] = target: human c-Met ECD-Fc-Flis (human); assay: HGF-blocking ELISA: HGF signal on coated c-Met ECD-Fc-Flis; Ab 7.63 ng/mL
# [8] = target: human c-Met ECD-Fc-Flis (human); assay: HGF-blocking ELISA: HGF signal on coated c-Met ECD-Fc-Flis; Ab 125000.00 ng/mL
# [9] = target: human c-Met ECD-Fc-Flis (human); assay: HGF-blocking ELISA: HGF signal on coated c-Met ECD-Fc-Flis; Ab 7812.50 ng/mL
# [10] = target: human c-Met ECD-Fc-Flis (human); assay: HGF-blocking ELISA: HGF signal on coated c-Met ECD-Fc-Flis; Ab 0.48 ng/mL
# [11] = target: human c-Met ECD-Fc-Flis (human); assay: HGF-blocking ELISA: HGF signal on coated c-Met ECD-Fc-Flis; Ab 1953.13 ng/mL
# Chain of human c-Met ECD-Fc-Flis (human) (chain, as listed by the source): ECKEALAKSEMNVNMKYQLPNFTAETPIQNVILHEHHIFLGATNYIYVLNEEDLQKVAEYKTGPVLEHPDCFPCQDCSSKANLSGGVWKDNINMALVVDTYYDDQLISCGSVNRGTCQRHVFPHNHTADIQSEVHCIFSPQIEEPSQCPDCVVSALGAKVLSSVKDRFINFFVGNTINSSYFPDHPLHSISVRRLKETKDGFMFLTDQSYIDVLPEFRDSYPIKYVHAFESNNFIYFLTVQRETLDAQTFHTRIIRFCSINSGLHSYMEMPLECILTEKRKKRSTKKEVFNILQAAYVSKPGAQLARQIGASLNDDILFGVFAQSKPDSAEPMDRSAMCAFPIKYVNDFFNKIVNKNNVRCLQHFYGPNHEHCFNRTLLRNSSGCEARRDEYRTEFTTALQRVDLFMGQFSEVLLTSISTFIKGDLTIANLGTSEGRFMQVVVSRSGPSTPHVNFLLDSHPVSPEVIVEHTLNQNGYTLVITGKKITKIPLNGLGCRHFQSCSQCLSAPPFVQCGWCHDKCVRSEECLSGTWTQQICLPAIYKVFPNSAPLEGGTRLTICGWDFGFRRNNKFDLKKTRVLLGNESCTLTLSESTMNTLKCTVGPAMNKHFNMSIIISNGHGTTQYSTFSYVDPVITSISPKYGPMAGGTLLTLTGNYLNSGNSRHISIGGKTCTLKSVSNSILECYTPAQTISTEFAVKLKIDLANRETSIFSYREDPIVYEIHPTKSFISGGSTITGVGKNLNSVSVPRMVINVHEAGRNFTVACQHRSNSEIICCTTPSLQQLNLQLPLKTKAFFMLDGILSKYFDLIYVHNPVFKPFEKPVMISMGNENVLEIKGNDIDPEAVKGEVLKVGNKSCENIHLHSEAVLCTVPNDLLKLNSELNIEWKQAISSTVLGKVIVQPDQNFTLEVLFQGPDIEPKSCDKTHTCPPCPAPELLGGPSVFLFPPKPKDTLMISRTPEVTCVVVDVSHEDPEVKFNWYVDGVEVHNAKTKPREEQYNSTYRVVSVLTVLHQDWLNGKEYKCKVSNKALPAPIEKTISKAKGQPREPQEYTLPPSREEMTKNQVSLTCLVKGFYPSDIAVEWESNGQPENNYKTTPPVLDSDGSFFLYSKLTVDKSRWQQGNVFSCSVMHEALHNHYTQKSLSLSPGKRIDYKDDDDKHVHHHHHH
# Chain of human c-Met (human) (P08581 25-1390): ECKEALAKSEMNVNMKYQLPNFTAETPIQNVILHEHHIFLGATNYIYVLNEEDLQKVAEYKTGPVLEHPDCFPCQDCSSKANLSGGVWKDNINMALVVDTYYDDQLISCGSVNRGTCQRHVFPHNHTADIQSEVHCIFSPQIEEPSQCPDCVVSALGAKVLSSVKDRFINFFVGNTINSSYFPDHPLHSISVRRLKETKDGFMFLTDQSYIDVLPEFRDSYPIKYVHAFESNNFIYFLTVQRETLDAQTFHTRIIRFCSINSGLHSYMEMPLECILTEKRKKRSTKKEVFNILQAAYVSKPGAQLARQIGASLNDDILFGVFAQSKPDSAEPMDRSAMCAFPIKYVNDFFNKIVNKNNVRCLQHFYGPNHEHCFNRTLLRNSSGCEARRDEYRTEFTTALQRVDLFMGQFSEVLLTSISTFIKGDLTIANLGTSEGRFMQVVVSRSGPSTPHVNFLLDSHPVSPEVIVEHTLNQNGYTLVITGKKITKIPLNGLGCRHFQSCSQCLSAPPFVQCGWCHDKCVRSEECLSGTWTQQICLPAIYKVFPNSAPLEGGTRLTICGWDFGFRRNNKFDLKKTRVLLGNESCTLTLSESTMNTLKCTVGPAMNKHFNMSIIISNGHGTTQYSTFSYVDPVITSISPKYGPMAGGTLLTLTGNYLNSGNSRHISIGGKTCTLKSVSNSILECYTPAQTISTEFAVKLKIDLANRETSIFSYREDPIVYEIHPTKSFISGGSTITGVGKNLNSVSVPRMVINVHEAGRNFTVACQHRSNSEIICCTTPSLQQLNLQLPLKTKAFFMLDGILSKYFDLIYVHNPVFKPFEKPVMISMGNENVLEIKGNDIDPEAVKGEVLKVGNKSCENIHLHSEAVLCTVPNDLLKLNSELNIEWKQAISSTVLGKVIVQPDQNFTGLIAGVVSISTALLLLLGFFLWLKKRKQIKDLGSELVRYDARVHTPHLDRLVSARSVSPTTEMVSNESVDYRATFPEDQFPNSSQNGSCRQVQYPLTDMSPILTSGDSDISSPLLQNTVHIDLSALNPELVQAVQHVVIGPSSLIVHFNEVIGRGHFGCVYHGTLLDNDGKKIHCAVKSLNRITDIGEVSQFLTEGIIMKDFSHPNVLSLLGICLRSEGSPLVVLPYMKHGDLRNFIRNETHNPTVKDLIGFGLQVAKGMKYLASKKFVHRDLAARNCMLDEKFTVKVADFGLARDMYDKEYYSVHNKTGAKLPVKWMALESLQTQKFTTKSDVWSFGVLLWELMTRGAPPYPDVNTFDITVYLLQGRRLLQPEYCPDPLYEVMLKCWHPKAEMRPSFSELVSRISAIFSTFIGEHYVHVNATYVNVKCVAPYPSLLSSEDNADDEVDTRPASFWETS
"% inhibition of HGF stimulated phospho-Met (ELISA, HCT116 cells), Ab 0.0032 µg/mL (human c-Met (human))","% inhibition of HGF stimulated phospho-Met (ELISA, HCT116 cells), Ab 0.016 µg/mL (human c-Met (human))","% inhibition of HGF stimulated phospho-Met (ELISA, HCT116 cells), Ab 0.08 µg/mL (human c-Met (human))","% inhibition of HGF stimulated phospho-Met (ELISA, HCT116 cells), Ab 0.4 µg/mL (human c-Met (human))","% inhibition of HGF stimulated phospho-Met (ELISA, HCT116 cells), Ab 2 µg/mL (human c-Met (human))","% inhibition of HGF stimulated phospho-Met (ELISA, HCT116 cells), Ab 10 µg/mL (human c-Met (human))","AVG CPM, 3H-thymidine incorporation in MKN45 cells, Ab 0.0 ng/mL (no antibody) (human c-Met (human))","AVG CPM, 3H-thymidine incorporation in MKN45 cells, Ab 0.1 ng/mL (human c-Met (human))","AVG CPM, 3H-thymidine incorporation in MKN45 cells, Ab 0.4 ng/mL (human c-Met (human))","AVG CPM, 3H-thymidine incorporation in MKN45 cells, Ab 2.6 ng/mL (human c-Met (human))","AVG CPM, 3H-thymidine incorporation in MKN45 cells, Ab 15.4 ng/mL (human c-Met (human))","AVG CPM, 3H-thymidine incorporation in MKN45 cells, Ab 92.6 ng/mL (human c-Met (human))","AVG CPM, 3H-thymidine incorporation in MKN45 cells, Ab 555.6 ng/mL (human c-Met (human))","AVG CPM, 3H-thymidine incorporation in MKN45 cells, Ab 3333.3 ng/mL (human c-Met (human))","AVG CPM, 3H-thymidine incorporation in MKN45 cells, Ab 20000.0 ng/mL (human c-Met (human))","Mean Fluorescence (c-Met left on the surface of MKN45 cells, FACS), Ab 5.00 ug/mL (human c-Met (human))",AVG A450 nm [1],AVG A450 nm [2],AVG A450 nm [3],AVG A450 nm [4],Substance,other results
-9.76%,-5.42%,-10.6%,13.4%,9.76%,5.46%,50300 CPM,47700 CPM,51500 CPM,55500 CPM,51300 CPM,52200 CPM,54700 CPM,53700 CPM,52400 CPM,136,,,,,murine IgG isotype control antibody,
-10.2%,9.49%,-1.58%,9.31%,17.5%,6.24%,50400 CPM,44800 CPM,46500 CPM,48500 CPM,50500 CPM,47600 CPM,51700 CPM,49400 CPM,45100 CPM,130,2.87 A450 nm,2.43 A450 nm,2.41 A450 nm,2.53 A450 nm,humanized IgG2 isotype control antibody,AVG A450 nm [5]: 2.5 A450 nm; AVG A450 nm [6]: 2.52 A450 nm; AVG A450 nm [7]: 2.7 A450 nm; AVG A450 nm [8]: 2.43 A450 nm; AVG A450 nm [9]: 2.5 A450 nm; AVG A450 nm [10]: 2.46 A450 nm; AVG A450 nm [11]: 2.43 A450 nm
-14.4%,-7.96%,-21.7%,-16.1%,-6.62%,-1.47%,48700 CPM,53900 CPM,55300 CPM,54800 CPM,53800 CPM,54300 CPM,54200 CPM,54000 CPM,50600 CPM,135,2.49 A450 nm,2.61 A450 nm,2.63 A450 nm,2.44 A450 nm,humanized IgG4 isotype control antibody,"AVG A450 nm [5]: 2.67 A450 nm; AVG A450 nm [6]: 2.44 A450 nm; p-Met signal (pY1349 ELISA, A549 cells), Ab 0.002 µg/mL (human c-Met (human)): 0.117; p-Met signal (pY1349 ELISA, A549 cells), Ab 0.005 µg/mL (human c-Met (human)): 0.074; p-Met signal (pY1349 ELISA, A549 cells), Ab 0.014 µg/mL (human c-Met (human)): 0.074; p-Met signal (pY1349 ELISA, A549 cells), Ab 0.041 µg/mL (human c-Met (human)): 0.268; p-Met signal (pY1349 ELISA, A549 cells), Ab 0.123 µg/mL (human c-Met (human)): 0.067; p-Met signal (pY1349 ELISA, A549 cells), Ab 0.370 µg/mL (human c-Met (human)): 0.082; p-Met signal (pY1349 ELISA, A549 cells), Ab 1.113 µg/mL (human c-Met (human)): 0.087; p-Met signal (pY1349 ELISA, A549 cells), Ab 3.333 µg/mL (human c-Met (human)): 0.068; p-Met signal (pY1349 ELISA, A549 cells), Ab 10 µg/mL (human c-Met (human)): 0.077; p-Met signal (pY1349 ELISA, A549 cells), Ab 30 µg/mL (human c-Met (human)): 0.061; AVG A450 nm [7]: 2.88 A450 nm; AVG A450 nm [8]: 3 A450 nm; AVG A450 nm [9]: 2.49 A450 nm; AVG A450 nm [10]: 2.41 A450 nm; AVG A450 nm [11]: 2.27 A450 nm"
